Results published in the supplement of paper PMC10724198.
± gives the standard deviation of the averaged measurements.

System: Saccharomyces cerevisiae
Test: protein stability index of tFT-peptide fusion (C-terminal peptide) (PSI (0-1 scale)); higher = more stable (slower turnover)
Settings: temperature: 30 C
Experimental: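 MPS profiling in S. cerevisiae of the yeast C-terminome library: the last 12 aa of each annotated ORF are fused to the C-terminus of a sfGFP-mCherry timer, after a GGGS linker. Cells are FACS-sorted into 8 mCherry/sfGFP bins and deep-sequenced. PSI runs from 0 (unstable) to 1 (stable); wild type and das1Δ backgrounds, two technical replicates each.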

[1] = genetic background: das1 deletion

“ILSLYFISDRTG [YBR200W-A C-terminal 12 aa]” showed a protein stability index [1] of 0.7249 ± 0.0034 and a protein stability index (genetic background: wild type) of 0.753 ± 0.053.

IKRLDANTDFNI [MFB1 C-terminal 12 aa] gave a protein stability index [1] of 0.678 ± 0.019 and a protein stability index (genetic background: wild type) of 0.668 ± 0.024.

GGGYLTSLKLFI [YOR041C C-terminal 12 aa] was tested, and the protein stability index [1] was 0.68787 ± 0.00068 and the protein stability index (genetic background: wild type) was 0.681 ± 0.031.

In the case of SDDDVSSESEEE [BDF1 C-terminal 12 aa], the protein stability index [1] is reported as 0.6997 ± 0.0067 and the protein stability index (genetic background: wild type) is reported as 0.658 ± 0.015.

ALGLAGAVMMLL [SPI1 C-terminal 12 aa] gave a protein stability index [1] of 0.693 ± 0.013 and a protein stability index (genetic background: wild type) of 0.746 ± 0.025.

Sequence VFGGCATTWIVL [ATS1 C-terminal 12 aa] has a protein stability index [1] of 0.6971 ± 0.0038 and a protein stability index (genetic background: wild type) of 0.692 ± 0.0096.

DKLAQRLRALRG [DID2 C-terminal 12 aa] gave a protein stability index [1] of 0.699 ± 0.01 and a protein stability index (genetic background: wild type) of 0.684 ± 0.048.

DAIDNSDEITQD [IRR1 C-terminal 12 aa] gave a protein stability index [1] of 0.709 ± 0.029 and a protein stability index (genetic background: wild type) of 0.703 ± 0.064.

ALENENKRKAKL [CAT2 C-terminal 12 aa] gave a protein stability index [1] of 0.79 ± 0.015 and a protein stability index (genetic background: wild type) of 0.798 ± 0.11.

For SLFPSLETEDKK [MIH1 C-terminal 12 aa], the protein stability index [1] was 0.674 ± 0.0077 and the protein stability index (genetic background: wild type) was 0.671 ± 0.02.

For “ILNCVGSAKTSG [YBR298C-A C-terminal 12 aa]”, the protein stability index [1] was 0.68417 ± 0.00062 and the protein stability index (genetic background: wild type) was 0.666 ± 0.019.

With “LLLSAFLRNLVP [YAL016C-A C-terminal 12 aa]” the protein stability index [1] was 0.685 ± 0.026 and the protein stability index (genetic background: wild type) was 0.375 ± 0.0073.

EQQNFEKCNEYI [NPL6 C-terminal 12 aa] gave a protein stability index [1] of 0.691 ± 0.01 and a protein stability index (genetic background: wild type) of 0.655 ± 0.007.

TKHTPKYLLNTI [YNL179C C-terminal 12 aa] gave a protein stability index [1] of 0.6926 ± 0.0048 and a protein stability index (genetic background: wild type) of 0.6621 ± 0.00097.

For DISVQQVKIASK [SPF1 C-terminal 12 aa], the protein stability index [1] was 0.682 ± 0.018 and the protein stability index (genetic background: wild type) was 0.6857 ± 0.0041.

TKYKTVTVTAKT [YMR244W C-terminal 12 aa] was tested, and the protein stability index [1] was 0.652 ± 0.014 and the protein stability index (genetic background: wild type) was 0.71 ± 0.034.

WDFKKQGFASRD [PDA1 C-terminal 12 aa] showed a protein stability index [1] of 0.696 ± 0.01 and a protein stability index (genetic background: wild type) of 0.6926 ± 0.003.

Work on LFGTCLVAMLLF [SPS22 C-terminal 12 aa] yielded a protein stability index [1] of 0.461 ± 0.023 and a protein stability index (genetic background: wild type) of 0.449 ± 0.022.

In the case of KKSKNRNTSLRP [SIP5 C-terminal 12 aa], the protein stability index [1] is reported as 0.726 ± 0.02 and the protein stability index (genetic background: wild type) is reported as 0.689 ± 0.02.

In the case of QAQLTAATNAKQ [PDC5 C-terminal 12 aa], the protein stability index [1] is reported as 0.6916 ± 0.0017 and the protein stability index (genetic background: wild type) is reported as 0.731 ± 0.069.

SPGYKAYLREER [YSF3 C-terminal 12 aa] was tested, and the protein stability index [1] was 0.722 ± 0.012 and the protein stability index (genetic background: wild type) was 0.685 ± 0.019.

For KQIVFEIPSETH [RPS7A C-terminal 12 aa], the protein stability index [1] was 0.701 ± 0.013 and the protein stability index (genetic background: wild type) was 0.6789 ± 0.0028.

With GLKGLFPTSYCK [BZZ1 C-terminal 12 aa] the protein stability index [1] was 0.702 ± 0.039 and the protein stability index (genetic background: wild type) was 0.732 ± 0.02.

Work on KAIEYFEEYQSW [FRE3 C-terminal 12 aa] yielded a protein stability index [1] of 0.721 ± 0.021 and a protein stability index (genetic background: wild type) of 0.6952 ± 0.0065.

KVSPAAAAKKAL [RPS26B C-terminal 12 aa] gave a protein stability index [1] of 0.684 ± 0.0089 and a protein stability index (genetic background: wild type) of 0.6696 ± 0.00082.

“WFSCSLIFRNSW [YJR140W-A C-terminal 12 aa]” was tested, and the protein stability index [1] was 0.6314 ± 0.0035 and the protein stability index (genetic background: wild type) was 0.618 ± 0.053.

LNIGGNLVTPLC [YSH1 C-terminal 12 aa] gave a protein stability index [1] of 0.719 ± 0.011 and a protein stability index (genetic background: wild type) of 0.671 ± 0.037.

FFFLLTSLLSPF [LCL1 C-terminal 12 aa] showed a protein stability index [1] of 0.637 ± 0.029 and a protein stability index (genetic background: wild type) of 0.592 ± 0.0065.

For VVTYTLKVDLKV [YLR152C C-terminal 12 aa], the protein stability index [1] was 0.469 ± 0.025 and the protein stability index (genetic background: wild type) was 0.491 ± 0.012.

In the case of SNPSSHIKKKGL [RRT6 C-terminal 12 aa], the protein stability index [1] is reported as 0.682 ± 0.014 and the protein stability index (genetic background: wild type) is reported as 0.6362 ± 0.0061.

STTTVIQGEINK [LRG1 C-terminal 12 aa] showed a protein stability index [1] of 0.671 ± 0.049 and a protein stability index (genetic background: wild type) of 0.713 ± 0.036.

With STHIDHDKFSFF [CDC8 C-terminal 12 aa] the protein stability index [1] was 0.7087 ± 0.0024 and the protein stability index (genetic background: wild type) was 0.694 ± 0.021.

Sequence TNYEVTDTYTNS [SOM1 C-terminal 12 aa] has a protein stability index [1] of 0.7107 ± 0.0011 and a protein stability index (genetic background: wild type) of 0.712 ± 0.017.

In the case of GTVCYGMIEIFF [VTC5 C-terminal 12 aa], the protein stability index [1] is reported as 0.596 ± 0.009 and the protein stability index (genetic background: wild type) is reported as 0.616 ± 0.013.

Work on GRYAQIHEKHIE [ASN1 C-terminal 12 aa] yielded a protein stability index [1] of 0.7022 ± 0.0044 and a protein stability index (genetic background: wild type) of 0.691 ± 0.089.

In the case of WTTEPYLQRIIW [DIE2 C-terminal 12 aa], the protein stability index [1] is reported as 0.753 ± 0.0089 and the protein stability index (genetic background: wild type) is reported as 0.718 ± 0.016.

Sequence VFNDIFRLNYSA [NTF2 C-terminal 12 aa] has a protein stability index [1] of 0.7108 ± 0.0032 and a protein stability index (genetic background: wild type) of 0.504 ± 0.0084.

In the case of LKYCKRRHNTPS [GCR1 C-terminal 12 aa], the protein stability index [1] is reported as 0.747 ± 0.0077 and the protein stability index (genetic background: wild type) is reported as 0.736 ± 0.021.

With PFPQKHRDNHLV [YOR053W C-terminal 12 aa] the protein stability index [1] was 0.701 ± 0.025 and the protein stability index (genetic background: wild type) was 0.711 ± 0.012.

In the case of IESTLSNKLSIN [YCR013C C-terminal 12 aa], the protein stability index [1] is reported as 0.696 ± 0.024 and the protein stability index (genetic background: wild type) is reported as 0.674 ± 0.014.

For CLMVSFLLLFGV [OLI1 C-terminal 12 aa], the protein stability index [1] was 0.315 ± 0.0097 and the protein stability index (genetic background: wild type) was 0.3088 ± 0.0016.

In the case of GIRRIVHEPLGI [MTE1 C-terminal 12 aa], the protein stability index [1] is reported as 0.733 ± 0.016 and the protein stability index (genetic background: wild type) is reported as 0.729 ± 0.045.

In the case of AVASFFLRNKRR [FIS1 C-terminal 12 aa], the protein stability index [1] is reported as 0.7073 ± 0.0052 and the protein stability index (genetic background: wild type) is reported as 0.69 ± 0.027.

In the case of TGGCSSSKFSLS [SKN1 C-terminal 12 aa], the protein stability index [1] is reported as 0.692 ± 0.021 and the protein stability index (genetic background: wild type) is reported as 0.68965 ± 0.00013.

Sequence “ALSCLGHSKIFI [YML094C-A C-terminal 12 aa]” has a protein stability index [1] of 0.7082 ± 0.0041 and a protein stability index (genetic background: wild type) of 0.706 ± 0.012.

In the case of EAAKKSEKKAKK [RPL34A C-terminal 12 aa], the protein stability index [1] is reported as 0.695 ± 0.0092 and the protein stability index (genetic background: wild type) is reported as 0.689 ± 0.023.

NTTRYNASLVNQ [DIA3 C-terminal 12 aa] gave a protein stability index [1] of 0.741 ± 0.031 and a protein stability index (genetic background: wild type) of 0.712 ± 0.044.

Sequence NASEIYVKRKTG [DDL1 C-terminal 12 aa] has a protein stability index [1] of 0.708 ± 0.041 and a protein stability index (genetic background: wild type) of 0.204 ± 0.03.

KLKRTITLPQLD [CIK1 C-terminal 12 aa] showed a protein stability index [1] of 0.691 ± 0.022 and a protein stability index (genetic background: wild type) of 0.761 ± 0.074.

VNHSFEFNDVLQ [IFH1 C-terminal 12 aa] showed a protein stability index [1] of 0.686 ± 0.014 and a protein stability index (genetic background: wild type) of 0.738 ± 0.025.

VPGGKKTPTEAL [LSM5 C-terminal 12 aa] showed a protein stability index [1] of 0.6817 ± 0.0014 and a protein stability index (genetic background: wild type) of 0.707 ± 0.026.

LIIRNLNAEKER [YFR056C C-terminal 12 aa] gave a protein stability index [1] of 0.6974 ± 0.0041 and a protein stability index (genetic background: wild type) of 0.686 ± 0.039.

Sequence GFASLIKDFKKK [NET1 C-terminal 12 aa] has a protein stability index [1] of 0.672 ± 0.018 and a protein stability index (genetic background: wild type) of 0.685 ± 0.043.

VHAENTTLREIL [CDC50 C-terminal 12 aa] showed a protein stability index [1] of 0.706 ± 0.036 and a protein stability index (genetic background: wild type) of 0.7076 ± 0.0047.

“HWLQLKPGQPMY [MF(ALPHA)1 C-terminal 12 aa]” gave a protein stability index [1] of 0.7177 ± 0.0044 and a protein stability index (genetic background: wild type) of 0.6822 ± 0.0032.

LQEPDRDNDDSG [NTC20 C-terminal 12 aa] was tested, and the protein stability index [1] was 0.701 ± 0.013 and the protein stability index (genetic background: wild type) was 0.7 ± 0.017.

Sequence KKNKSAIDGIFG [RMP1 C-terminal 12 aa] has a protein stability index [1] of 0.7173 ± 0.0015 and a protein stability index (genetic background: wild type) of 0.694 ± 0.014.

Sequence KESIQQQEDDLL [SEC17 C-terminal 12 aa] has a protein stability index [1] of 0.6974 ± 0.0026 and a protein stability index (genetic background: wild type) of 0.692 ± 0.014.

Work on SAIGSDIVNSIF [LSB1 C-terminal 12 aa] yielded a protein stability index [1] of 0.7044 ± 0.0053 and a protein stability index (genetic background: wild type) of 0.676 ± 0.024.

In the case of KPSSNNSINIKV [AHK1 C-terminal 12 aa], the protein stability index [1] is reported as 0.707 ± 0.033 and the protein stability index (genetic background: wild type) is reported as 0.743 ± 0.031.

SLDVGKILDVTI [PSR1 C-terminal 12 aa] showed a protein stability index [1] of 0.686 ± 0.012 and a protein stability index (genetic background: wild type) of 0.662 ± 0.038.
